In ChEMBL document CHEMBL1145332, “Design of inhibitors of orotidine monophosphate decarboxylase using bioisosteric replacement and determination of inhibition kinetics” (J Med Chem, 2006):

Assays:
[1] = substrate: O=C(O)c1cc(=O)[nH]c(=O)n1[C@@H]1O[C@H](COP(=O)(O)O)[C@@H](O)[C@H]1O; assay: Affinity for Saccharomyces cerevisiae ODCase at 25 degreeC by UV-based assay
[2] = substrate: O=C(O)c1cc(=O)[nH]c(=O)n1[C@@H]1O[C@H](COP(=O)(O)O)[C@@H](O)[C@H]1O; assay: Affinity for Plasmodium falciparum ODCase at 25 degreeC by UV-based assay
[3] = substrate: O=C(O)c1cc(=O)[nH]c(=O)n1[C@@H]1O[C@H](COP(=O)(O)O)[C@@H](O)[C@H]1O; assay: Affinity for Methanobacterium thermoautotrophicum ODCase at 55 degreeC by ITC method
[4] = substrate: O=C(O)c1cc(=O)[nH]c(=O)n1[C@@H]1O[C@H](COP(=O)(O)O)[C@@H](O)[C@H]1O; assay: Affinity for Methanobacterium thermoautotrophicum ODCase at 25 degreeC by ITC method

B1: Orotidine 5'-phosphate decarboxylase (Saccharomyces cerevisiae S288c), P03962 (protein)
chain: MSKATYKERAATHPSPVAAKLFNIMHEKQTNLCASLDVRTTKELLELVEALGPKICLLKTHVDILTDFSMEGTVKPLKALSAKYNFLLFEDRKFADIGNTVKLQYSAGVYRIAEWADITNAHGVVGPGIVSGLKQAAEEVTKEPRGLLMLAELSCKGSLATGEYTKGTVDIAKSDKDFVIGFIAQRDMGGRDEGYDWLIMTPGVGLDDKGDALGQQYRTVDDVVSTGSDIIIVGRGLFAKGRDAKVEGERYRKAGWEAYLRRCGQQN
How did the Km [1] turn out when B1 was run?
The Km was 0.7 µM.

B2: Orotidine phosphate decarboxylase (Plasmodium falciparum), Q8T6J6 (protein)
chain: MGFKVKLEKRRNAINTCLCIGLDPDEKDIENFMKNEKENNYNNIKKNLKEKYINNVSIKKDILLKAPDNIIREEKSEEFFYFFNHFCFYIINETNKYALTFKMNFAFYIPYGSVGIDVLKNVFDYLYELNIPTILDMKINDIGNTVKNYRKFIFEYLKSDSCTVNIYMGTNMLKDICYDEEKNKYYSAFVLVKTTNPDSAIFQKNLSLDNKQAYVIMAQEALNMSSYLNLEQNNEFIGFVVGANSYDEMNYIRTYFPNCYILSPGIGAQNGDLHKTLTNGYHKSYEKILINIGRAITKNPYPQKAAQMYYDQINAILKQNMES
B2 was tested. Which Km [2] did it give?
Its Km is 13 µM.

B3: Orotidine 5'-phosphate decarboxylase (Methanobacterium thermoautotrophicum), O26232 (protein)
chain: MRSRRVDVMDVMNRLILAMDLMNRDDALRVTGEVREYIDTVKIGYPLVLSEGMDIIAEFRKRFGCRIIADFKVADIPETNEKICRATFKAGADAIIVHGFRGADSVRACLNVAEEMGREVFLLTEMSHPGAEMFIQGAADEIARMGVDLGVKNYVGPSTRPERLSRLREIIGQDSFLISPGVGAQGGDPGETLRFADAIIVGRSIYLADNPAAAAAGIIESIKDLLNP
Which Km [3] does the source give for B3 here?
The Km was 5 µM.

What about the Km [4] of the same protein?
Its Km is 2 µM.
